The test system of the series is HEK293 cells. Format: cell-based, human. Particulars: luminescence from secreted Gluc in supernatant 24 hours after transfection of HEK293 cells; circular RNA encoding Gluc with the named IRES (UTR truncated to 675 nt).

B1: Hepatovirus I (nucleic acid)
DNA: GGCTGCCTGTGTCTCAGGGGTAAGTACTGGGGCCGCGTTGACCGTGCGGTACGGTTATGCTTTTAGATTAGGATGTCCGTCTGTCCGGCACTCTCTTTTGCTTAAAATGGCCTTAAATCCATGGGAGGCGTAACCATGGGCCCTTTGTTACCTAGACATGATTGCATTGGGGGCCGTCCTTGGGGCTTAGGCCCCAGCCATTTCTCTTGACTCGTCTAAGAGTTTACTTCATCCTTTTCTTTACTTTATTTTCCAGGCTCTCAGCATGCCGACGGCTCTGACCACTGCGCCCGGTGGGGTTAACTGCATGATTAGCATGCAGCTGTAGGAGTTAAAAGTGCTGACAGGCCAATTCTGACGTAAGTCCACTCTATATTAACTTGATCAAGTAAGGTTGATTGATCTTTGTGAGAGGGTAGGCTACGGGTGAAACCCTCTAGGTTAATACTCATATTGAGAGATACCTCCAGAAGGTGAAGGTTGGCGGATATTGGTGAGTTCTTTTAGGACAAAAACCTTTCAACGCCTGTGGGCCCACCTCACTGGCACAATGCTTTCATCCCCAATTGTGATGGGTAGTTTGGACTGAAATCAGGAGTAACCTGCCCTACGAGTTTAGGGGTAGTTCAGGGGTATTTAGGCTTCCACATTTGATAGAGTTTATGAGAGTGAGCC
modifications: Hepatovirus I
Regarding B1, the Expression is on record as 8.79E+05.

B2: Hepatovirus C (nucleic acid)
DNA: TTCAAAAGCCCCAGCGGGGTTTCATTACCCCGCTGTGGCTTTTGGACTTCCCTAGGATGGGGAAGTAAATTACCATCCTCGCGTTTGCCGTGCGTTAACGGCTACTTTTCTTCTAGCTGTAGAAGTAAAATTCAGCATGTTTTATGTTTGTTTGTCTTGTTTGTTATATACATTTTTACACTCCTACAAATGCACATGAAGAACAGTTTGTAGAGATTAACAAACGCTTAGCTGAACCTAGGTGGTGAATCTAGTAGTAAGATAAGTAGAGGAAGCTATACCTTAAGTTGGTTGGGCCCTCGTGTTTGCTCTATAAACAAAACCAAGTGAGTAGAGTGGATGAACAGTACTAAATCCCTGAGTACAGGGAACCTCACAGGTGTGATACACTTATGTCTATGTGACCTGGTTGGAGGTTGGGCGTGCCCTATGATACTGGAGTGGGAGATCTTTTGGGGAACCCACGTTTTCACACTGCCTGATAGGGTCTTGCCGAGAGACTCACTTGTTTCGGCTGTACTTGTAAC
modifications: Hepatovirus C
For B2, the Expression turned out to be 5.08E+05.

B3: Fipivirus A (nucleic acid)
DNA: TGCGGGTAAACTCCCGCATGTGTGAATGAGGCGATGTCCCAGGAACTAACTGCCGATCCTGGTTTTAACTACGATCCGTATTTGTTACTAATGCGATATCCCCCCATTGTTTGCCTCCATGTTGTTTTCAACGCTTTTGGCCTTGAGTGTTATCAAGTGTTTTAGCGACATAGTGGGAAGCTACGGCTGCGTCCCCATTTTTGAGTGGCGACCCAGTTTTAGTGGCCACTCTGTCCCTGAACTGCGCTATAATGTGAATTTATGTTCACAAAAACGGACTGATGTAACTGTTAATGACTAAGGAATAGTACCTCACTGAAGTATCAAGACCCCGTTCGAGCGGTGTACATATATGGATGGAAACCTTGTCTGAGTCATCTCGAATACTAATCAATGAGGGATGTCGAGTAAGCATATCATGAACCACATAGAATAGTGGGGTTTCGGGGTTAGAGGCTCTCTGCAGCAATGTATCTCTAACACCATGGCCGAAATGAGAGATAGAGACCACGATGTTTGTGTGTAAGTAATGATGTGTGGAAAGAAAATTCTGAATGTTGGTATGATATCAGTCTAAGGGGAGTGGCTCACCTAAGAGCTACCCAAACATTTCACAGCAGACAACATAACGTACTGAGAGTAGTTGGAAGGTTCCAGAAATCAGT
modifications: Fipivirus A
Turning to B3, the Expression is listed as 2.69E+05.

(Values after patent publication US20230226096A1 (Orna Therapeutics, Inc., priority 2020, published 2023).)
